Measurements taken from the supplement of paper PMC9170038.

System: MS2 coat protein
Test: apparent KD of MS2 coat protein; designed switch direction (-1 OFF switch, 1 ON switch): -1; higher = weaker reporter binding
Method in brief: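 Apparent KD, taken as the median over clusters for each design, was obtained by curve-fitting normalised cluster fluorescence. Designed RNA switches had been transcribed on Illumina chips by stalled E. coli RNA polymerase and titrated with SNAP-549-labelled MS2 coat protein, doubling from 0.7 or 1.5 nM to 3 µM.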

[1] = input ligand: microRNA oligo, concentration not stated
[2] = Eterna round: R95, input ligand: FMN 200 uM
[3] = Eterna round: R95, input ligand: microRNA oligo, concentration not stated
[4] = Eterna round: R95, input ligand: none

Sequence	apparent KD of MS2 coat protein (input ligand: FMN 200 uM) [nM]	apparent KD of MS2 coat protein (input ligand: none) [nM]	apparent KD of MS2 coat protein [1] [nM]	apparent KD of MS2 coat protein [2] [nM]	apparent KD of MS2 coat protein [3] [nM]	apparent KD of MS2 coat protein [4] [nM]
AGUUCACAUGAGGAUCACCCAUGUGAGGAUAUGGAUUCGCUGGCCGUAGCCAGUGGAUCCAGAAGGCGCAUGAU [JL-ex1-4.14] (Eterna round: R97, puzzle: Exclusion 1)	36.9	32				
AGUUGACGAGAAGGAUAUCCGAACCUUUAAAGAGGAGAAGGUCUAUCAACAUGAGGAUCACCCAUGUACAUCGCUCGGGUGUCC [Arenis] (Eterna round: R96, puzzle: Exclusion NG 1)			54.7			
AGUUGCGCAGGAUAUACAUGAGGAUCACCCAUGUGAGAGAAAUAAGUGAGGAAGAAAAGUAGAAGGGCGUGACA [Mat - Exclusion 3 - Mod of Salish D74] (puzzle: Exclusion 3)				236	40.6	47.1
AGUUGCGCAGGAUAUACAUGAGGAUCACCCAUGUGAGAGAAAUAAGUGAGGAAGAAAAGUAGAAGGGCGUGACG [Mat - Exclusion 3 - Mod of Salish D73] (puzzle: Exclusion 3)				281	53.8	57.3
AGUUGGCGAGGAUAUACAUGAGGAUCACCCAUGUAAAAAAAAAAAAAAAAAACUUCAUGUAGAAGGCGCUGACA [Starry Exclusion 3.4 (biggestlegoheroicafanever round 1 mod)] (Eterna round: R96, puzzle: Exclusion 3)	327	373	200			
AGUUGGCGAGGAUAUACAUGAGGAUCACCCAUGUAAGAGAUACGAGUAAGGUAAAUAUGUAGAAGGCGCUGACA [JR_Ex3_Sub076] (Eterna round: R97, puzzle: Exclusion 3)	251	26.9				
AGUUGGCGAGGAUAUACAUGAGGAUCACCCAUGUGAAAUAUAAUAGUGAGGAAGAAAAGUAGAAGGCGCUGACA [Mat - Exclusion 3 - Mod of Salish D42] (puzzle: Exclusion 3)					42.7	
AGUUGGCGAGGAUAUACAUGAGGAUCACCCAUGUGAGAGGUACUAGUGAGGUCGAUUAGUAGAAGGCGCUGACA [Mat X3R4 m10] (Eterna round: R97, puzzle: Exclusion 3)	2100	48.3				
AGUUGGGAAGGAUAUACAUGAGGAUCACCCAUGUGAAAUUAUAGUGAGGAAAUGAAAAGUAGAAGGUCCUGACA [Mod of Mat 4 - Jieux - Exclusion 3] (Eterna round: R97, puzzle: Exclusion 3)	147	35.8				
AGUUGUUGCGCAGGAUAUGAGGAUCACCCAUAGAAGGAUAUCGAAAGAGAAGGUCUGAGGAUUACCCAGAAGGGCGUGAUGACA [pwkr exNG2 2xF5 2xFMN.8] (Eterna round: R96, puzzle: Exclusion NG 2)	905	184	130			
AUAAAACGUGUAGGAUAUGCGUGGCGAAGCUAUGCAGAAGGACAUGAGGAUCACCCAUGUUCUAGCGUCUGCGUACAGAUGCUA [JL eng1 1.35 mod 4] (Eterna round: R96, puzzle: Exclusion NG 1)	18.2	14.8	10.9			
AUAAAGUGAGGAUAUCCAAUAUAUGACAUGAGGAUCACCCAUGUUUCCACUCGUACCUCCGGAGAAGGCACAAUUU [Ex5 #63] (Eterna round: R97, puzzle: Exclusion 5)	24.5	29.2				
AUAAAUCAUGUAGGAUAUGCAUAGCAAAGCUAUGCAGAAGGACAUGAGGAUCACCCAUGUCAUUCCGUCUGGAGACAGACGGGA [Mat - Exclusion NG 1 - Mod of JL - D57] (Eterna round: R96, puzzle: Exclusion NG 1)	129	32	26.4			
AUAAGCCCGGCAGGAUAUCACAGGUUGCCGGGUAUCAACAUGAGGAUCACCCAUGUACACCUGCUUGAGAAGGGCCCAAGGGCG [Inarza] (Eterna round: R96, puzzle: Exclusion NG 2)	163	80.3	69.6			
AUAAGCUUUGAGAUCCUUAACAUGAGGAUCACCCAUGUUCGUCUUAUGAUGGUCUGAUCCCUGAGGAUCGGACCGUA [Mat - Sensor v3 - turn-off var 1 - JL Mod - D1] (puzzle: Sensor v3, turn-off variant 1)				146	28.4	186
AUAAGUAUAUAGGAUAUCUAGCUGGAAACAGCUAGAGAAGGAUGUACAUGAGGAUCACCCAUGUAAAUCAAUAG [Ex6/8-A2] (Eterna round: R97, puzzle: Exclusion 6)	17.9	19.6				

Sequence	apparent KD of MS2 coat protein (input ligand: FMN 200 uM) [nM]	apparent KD of MS2 coat protein (input ligand: none) [nM]	apparent KD of MS2 coat protein [1] [nM]	apparent KD of MS2 coat protein [2] [nM]	apparent KD of MS2 coat protein [3] [nM]	apparent KD of MS2 coat protein [4] [nM]
AUAAGUGAUAAGGAUAUCACUAGCCUCGGCUAGUGAGAAGGUAUCACAUGAGGAUCACCCAUGUGUUCCAAUAA [Ex6/7-A2] (Eterna round: R97, puzzle: Exclusion 6)	1350	169				
AUAAUAAUAUAGGAUAUCGAAUUAAUUAUUUAACGAGAAGGAUGAACAUGAGGAUCACCCAUGUGGUAUCAUGG [Mat - Exclusion 6 - JL Mod - D34] (puzzle: Exclusion 6)				255	244	317
AUAAUGUAAGGAUAUAUGAAUCACGGUGAUACACCGUGAAGAUAGAAGGUACAUGAGGAUCACCCAUGUAAGGC [Mod of Anonveat 12 - Jieux - Exclusion 4] (Eterna round: R97, puzzle: Exclusion 4)	12.1	21				
AUAAUGUAAGGAUAUCAGUCGUACAGCGAUAGCUGUACGACUGAGAAGGUACAUGAGGAUCACCCAUGUGAUCA [E4/8-A4] (Eterna round: R97, puzzle: Exclusion 4)	666	3680				
AUAAUGUCAGGAUAUCGAACUUACUACCUCGGUAGUAAGUUCGAGAAGGGACAUGAGGAUCACCCAUGUGAUCA [E4/1-A5] (Eterna round: R97, puzzle: Exclusion 4)	68.5	195				
AUAAUGUCAGGAUAUCGAGACUACUGCUUCGGCAGUAGUCUCGAGAAGGGACAUGAGGAUCACCCAUGUGAUCA [E4/1-A1] (Eterna round: R97, puzzle: Exclusion 4)	41.8	40.8				
AUAAUGUGAGGAUAUCACGGCCCGGAGAAUCCGGUAAACGAUGAGAAGGCACAUGAGGAUCACCCAUGUUCCUG [EX4 A.4] (Eterna round: R97, puzzle: Exclusion 4)	44.3	18.3				
AUAAUGUGAGGAUAUCGAGACUACUGCUGCGGCAGUAGUCUCGAGAAGGCACAUGAGGAUCACCCAUGUGAUCA [E4/2-A3] (Eterna round: R97, puzzle: Exclusion 4)	89.7	1590				
AUAAUUAGAGGAUAUGGUACAUUGCACAUGAGGAUCACCCAUGUAAGGUGACCCAUGUCGCCAGAAGGCUGAUAUG [Eternabot (L2) Solution 46] (Eterna round: R97, puzzle: Exclusion 5)	3460	460				
AUACCACGAGGAUAUCGUCUAUAAUACAUGAGGAUCACCCAUGUUAUAUAUGUAAUGUUUCGAGAAGGCGUGUUUU [JR_E5_Sub082] (puzzle: Exclusion 5)					14.7	
AUACCACGAGGAUAUCGUCUAUUCCACAUGAGGAUCACCCAUGUUAUCCAUGUUUCGUUUCGAGAAGGCGUGUUUU [JR_E5_Sub075] (puzzle: Exclusion 5)					54.1	
AUACGCCAGGUAGGAUAUAGUACGUCGGCAACAUGAGGAUCACCCAUGUGGCCUCGUGUCUGGCACUAGAAGGGCCGAGGCCUU [Raatalave] (Eterna round: R96, puzzle: Exclusion NG 2)	33.5	30.9	26.2			
AUACUCGAAGGAUAUGUGUAAGAGUACAUGAGGAUCACCCAUGUCCUAAGCACUUGGACGGCAGAAGGUCGACUGU [Eternabot (L2) Solution 36] (Eterna round: R97, puzzle: Exclusion 5)	57.7	25.1				
AUAGUAUAGCAAGGAUAUCGAUUUAGUUUGUUACGAGAAGGUGCUUUAGUUUAUACCUCUUGUUUACAUGAGGAUCACCCAUGU [JR_ExcNG1_Sub048] (Eterna round: R96, puzzle: Exclusion NG 1)			19.4			
AUAUUAACAUAGGAUAUCGAAUUUAUCAUUUAACGAGAAGGAUGAACAUGAGGAUCACCCAUGUGGUAUCAUGG [Mat - Exclusion 6 - JL Mod - D1] (puzzle: Exclusion 6)				171	144	249
